Residue numbers refer to the chain shown, from its start.
Tests used:
Experiment in all cases: cell_activity
[1] = test system: T1, int-NLS234 insertion PPKKKRKVE between G and S at position 234 (SEQ 61) (Streptomyces phage phiC31); conditions: DF-1 cells; 84 colonies avg
T1 sequence: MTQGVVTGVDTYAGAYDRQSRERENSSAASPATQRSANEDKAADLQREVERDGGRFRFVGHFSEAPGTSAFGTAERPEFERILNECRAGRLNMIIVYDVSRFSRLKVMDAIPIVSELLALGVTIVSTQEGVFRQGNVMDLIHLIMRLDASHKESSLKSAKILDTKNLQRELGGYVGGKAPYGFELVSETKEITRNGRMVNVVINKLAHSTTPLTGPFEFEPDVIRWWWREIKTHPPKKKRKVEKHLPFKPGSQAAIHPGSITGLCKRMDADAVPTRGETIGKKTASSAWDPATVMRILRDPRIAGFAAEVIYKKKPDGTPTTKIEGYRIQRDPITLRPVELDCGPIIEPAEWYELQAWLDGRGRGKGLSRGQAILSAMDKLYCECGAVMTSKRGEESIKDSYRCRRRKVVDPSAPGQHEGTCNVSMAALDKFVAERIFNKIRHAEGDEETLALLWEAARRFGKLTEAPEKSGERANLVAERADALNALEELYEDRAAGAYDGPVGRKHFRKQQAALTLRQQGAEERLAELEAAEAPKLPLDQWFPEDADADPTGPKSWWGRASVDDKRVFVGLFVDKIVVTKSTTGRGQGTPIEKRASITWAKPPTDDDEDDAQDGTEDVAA

[2] = test system: T2, NLS-int-1 N-terminal MTQGVVTG replaced with MEPKKKRK (SEQ 57), joined at +1 V (Streptomyces phage phiC31); conditions: DF-1 cells; 2.5 colonies avg, background level; reflects recombination activity, not binding
T2 sequence: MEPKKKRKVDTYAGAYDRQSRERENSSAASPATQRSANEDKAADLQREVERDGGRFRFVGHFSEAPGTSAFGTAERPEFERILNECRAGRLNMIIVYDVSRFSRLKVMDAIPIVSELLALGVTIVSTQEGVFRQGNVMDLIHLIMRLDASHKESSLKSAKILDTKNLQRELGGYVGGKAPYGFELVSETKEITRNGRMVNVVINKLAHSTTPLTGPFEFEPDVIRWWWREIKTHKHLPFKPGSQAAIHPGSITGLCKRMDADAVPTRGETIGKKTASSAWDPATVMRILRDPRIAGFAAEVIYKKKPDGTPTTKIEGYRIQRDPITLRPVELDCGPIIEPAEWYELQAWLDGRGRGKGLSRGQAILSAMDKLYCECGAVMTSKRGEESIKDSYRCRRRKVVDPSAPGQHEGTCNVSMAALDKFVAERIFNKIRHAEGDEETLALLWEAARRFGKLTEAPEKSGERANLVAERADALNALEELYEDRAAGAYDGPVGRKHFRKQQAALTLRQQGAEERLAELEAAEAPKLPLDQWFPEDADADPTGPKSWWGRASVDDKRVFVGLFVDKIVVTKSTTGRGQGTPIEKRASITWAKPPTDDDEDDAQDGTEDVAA

[3] = test system: T3, 3rdGTG-int (+1 start) (Streptomyces phage phiC31); conditions: DF-1 cells; 14 colonies avg
T3 sequence: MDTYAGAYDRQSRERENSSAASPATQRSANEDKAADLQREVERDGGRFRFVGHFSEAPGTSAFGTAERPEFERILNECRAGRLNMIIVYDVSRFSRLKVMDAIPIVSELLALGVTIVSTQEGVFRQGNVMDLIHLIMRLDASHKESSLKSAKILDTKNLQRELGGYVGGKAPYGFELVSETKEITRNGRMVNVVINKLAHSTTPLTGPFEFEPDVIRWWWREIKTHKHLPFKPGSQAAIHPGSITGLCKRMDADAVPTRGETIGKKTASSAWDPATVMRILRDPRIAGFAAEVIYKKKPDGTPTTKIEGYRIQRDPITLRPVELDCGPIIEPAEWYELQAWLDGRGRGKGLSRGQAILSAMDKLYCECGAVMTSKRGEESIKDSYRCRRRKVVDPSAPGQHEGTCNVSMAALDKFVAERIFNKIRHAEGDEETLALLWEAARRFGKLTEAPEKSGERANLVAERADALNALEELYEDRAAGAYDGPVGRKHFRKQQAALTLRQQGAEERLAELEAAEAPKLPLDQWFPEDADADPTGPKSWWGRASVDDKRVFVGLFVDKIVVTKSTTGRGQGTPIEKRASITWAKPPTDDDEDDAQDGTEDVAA

[4] = test system: T4, c-myc-NLS-int N-terminal MTQGVVT replaced with MAPAAKRLKLDSL (SEQ 59), NLS joined at -1 G (Streptomyces phage phiC31); conditions: DF-1 cells; 56.2 colonies avg
T4 sequence: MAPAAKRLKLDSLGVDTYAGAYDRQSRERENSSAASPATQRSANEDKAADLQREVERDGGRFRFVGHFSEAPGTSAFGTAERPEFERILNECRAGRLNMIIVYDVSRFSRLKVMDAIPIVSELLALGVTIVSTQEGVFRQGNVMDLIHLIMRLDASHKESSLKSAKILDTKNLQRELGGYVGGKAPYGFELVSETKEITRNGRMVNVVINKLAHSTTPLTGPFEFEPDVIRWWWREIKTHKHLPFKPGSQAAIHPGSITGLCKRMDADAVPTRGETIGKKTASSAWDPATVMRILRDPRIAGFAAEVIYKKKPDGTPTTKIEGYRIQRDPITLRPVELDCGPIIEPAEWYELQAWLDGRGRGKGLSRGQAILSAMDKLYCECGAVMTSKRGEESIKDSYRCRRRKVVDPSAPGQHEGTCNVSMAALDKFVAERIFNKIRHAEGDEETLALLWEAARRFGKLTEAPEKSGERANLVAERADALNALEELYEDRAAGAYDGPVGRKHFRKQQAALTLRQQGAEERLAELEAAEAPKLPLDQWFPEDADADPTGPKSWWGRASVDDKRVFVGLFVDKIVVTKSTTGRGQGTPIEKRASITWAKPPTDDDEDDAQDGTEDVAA

[5] = test system: T5, 3rdGTG-int-NLS234 insertion PPKKKRKVE between G and S at position 234 (SEQ 61) (Streptomyces phage phiC31); conditions: DF-1 cells; 30 colonies avg
T5 sequence: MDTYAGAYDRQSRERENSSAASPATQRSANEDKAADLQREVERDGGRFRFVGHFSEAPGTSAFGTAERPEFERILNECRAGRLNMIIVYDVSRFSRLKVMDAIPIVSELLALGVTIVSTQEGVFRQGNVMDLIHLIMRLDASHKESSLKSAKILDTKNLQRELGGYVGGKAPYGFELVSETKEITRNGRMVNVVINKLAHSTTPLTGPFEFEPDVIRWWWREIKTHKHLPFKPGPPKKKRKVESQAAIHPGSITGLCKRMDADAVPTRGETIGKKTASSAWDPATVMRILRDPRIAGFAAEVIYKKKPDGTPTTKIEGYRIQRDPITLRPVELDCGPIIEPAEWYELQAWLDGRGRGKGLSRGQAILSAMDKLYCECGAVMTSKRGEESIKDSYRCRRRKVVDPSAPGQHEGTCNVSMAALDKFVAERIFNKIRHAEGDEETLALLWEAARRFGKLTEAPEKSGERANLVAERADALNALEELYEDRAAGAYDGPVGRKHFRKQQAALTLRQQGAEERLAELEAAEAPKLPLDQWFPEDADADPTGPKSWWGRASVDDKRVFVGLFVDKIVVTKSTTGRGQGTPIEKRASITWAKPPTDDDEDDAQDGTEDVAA

[6] = test system: T6, phiC31 integrase (wild type, -8 ATG start) (Streptomyces phage phiC31); conditions: integration of pCMV-pur-attB into chicken DF-1 genome pseudo-attP sites; 103.8 colonies avg
T6 sequence: T2 sequence with E2T, P3Q, K4G, K5V, K6V, R7T, K8G

[7] = test system: T7, 3rdGTG-int-NLS PKKKRKV appended after A605 (Streptomyces phage phiC31); conditions: DF-1 cells; 10 colonies, one experiment
T7 sequence: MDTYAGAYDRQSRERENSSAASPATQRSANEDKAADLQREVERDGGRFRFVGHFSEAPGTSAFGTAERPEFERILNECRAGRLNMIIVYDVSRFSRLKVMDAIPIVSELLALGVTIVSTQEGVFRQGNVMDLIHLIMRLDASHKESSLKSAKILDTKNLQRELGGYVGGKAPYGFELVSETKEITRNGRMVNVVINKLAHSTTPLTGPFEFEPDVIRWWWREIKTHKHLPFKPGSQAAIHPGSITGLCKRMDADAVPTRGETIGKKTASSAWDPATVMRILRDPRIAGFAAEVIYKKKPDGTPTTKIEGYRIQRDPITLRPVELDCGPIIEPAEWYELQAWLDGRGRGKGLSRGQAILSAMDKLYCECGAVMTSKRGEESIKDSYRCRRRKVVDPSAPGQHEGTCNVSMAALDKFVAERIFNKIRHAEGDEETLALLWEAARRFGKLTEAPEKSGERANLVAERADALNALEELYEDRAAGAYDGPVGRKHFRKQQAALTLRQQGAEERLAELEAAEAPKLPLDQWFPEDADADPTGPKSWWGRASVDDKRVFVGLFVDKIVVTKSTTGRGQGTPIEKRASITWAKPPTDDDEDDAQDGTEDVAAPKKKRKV

[8] = test system: T8, NLS-int-2 MEPKKKRKV added upstream of -8 M (SEQ 58) (Streptomyces phage phiC31); conditions: DF-1 cells; 6 colonies avg
T8 sequence: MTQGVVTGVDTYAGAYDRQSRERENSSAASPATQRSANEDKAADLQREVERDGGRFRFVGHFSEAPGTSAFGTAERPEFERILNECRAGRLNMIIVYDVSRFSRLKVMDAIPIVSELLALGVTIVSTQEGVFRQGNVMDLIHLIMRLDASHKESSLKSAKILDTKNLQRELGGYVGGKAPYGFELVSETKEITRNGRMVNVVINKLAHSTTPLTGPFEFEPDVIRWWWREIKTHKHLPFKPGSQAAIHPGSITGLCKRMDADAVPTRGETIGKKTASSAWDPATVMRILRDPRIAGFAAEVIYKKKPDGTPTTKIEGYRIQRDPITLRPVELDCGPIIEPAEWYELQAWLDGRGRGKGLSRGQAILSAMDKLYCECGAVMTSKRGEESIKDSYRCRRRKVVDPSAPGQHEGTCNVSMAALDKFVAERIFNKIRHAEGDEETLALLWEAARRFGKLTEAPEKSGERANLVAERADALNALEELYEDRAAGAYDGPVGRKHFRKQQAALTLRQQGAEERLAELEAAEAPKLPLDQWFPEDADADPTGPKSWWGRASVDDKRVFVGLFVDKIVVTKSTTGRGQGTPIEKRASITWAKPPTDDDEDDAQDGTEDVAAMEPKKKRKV

Q: With phiC31 attB (donor plasmid) as the substance, how does the activity (fold over no integrase) [1] read?
A: 32.3

Q: What about the activity (fold over no integrase) [2] of the same substance?
A: 1

Q: What about the activity (fold over no integrase) [3] of the same substance?
A: 5.4

Q: What about the activity (fold over no integrase) [4] of the same substance?
A: 21.6

Q: What about the activity (fold over no integrase) [5] of the same substance?
A: 11.5

Q: What about the activity (fold over no integrase) [6] of the same substance?
A: 39.9

Q: And the activity (fold over no integrase) [7]?
A: 3.8

Q: What about the activity (fold over no integrase) [8] of the same substance?
A: 2.3

Reference: patent US20070190601
